Reference: the DeepSol protein solubility set

assay: soluble on expression in E. coli; label from the status in PepcDB or PDB records

Soluble on expression in E. coli, soluble:
MKTIRRYDVNEDRGHTGLVEAGDFYYLNYCVGNVGQDIESQINGAFDEMERRLALVGLTLDAVVQMDCLFRDVWNIPVMEKMIKERFNGRYPARKSIQTEFAHHGGPQGLLFQVDGVAYSKHISMT
MSLAIQPLAYRMRPKALDEIVGQTHLVGKDKIIYRMVKAKQLSSMILYGPPGIGKTSIASAIAGSTKYAFRTLNAVTNNKKDMEVVAAEAKMSGTVILLLDEVHRLDKAKQDFLLPLLESGAIILIGATTSNPYIAINPAIRSRTQIFELKPLTVEDIMITMDRALSDKERGLGNYDVEIDEVAKKHFATASNGDVRSALNALELAVISSEPNEDGVIHITLDVAEECLQKKSLAHDKDGDAHYDVLSAFQKSVRGSDVNAALHYMGRLIEAGDLVSISRRMLVMAYEDIGLASPQAGAHTLAAIQTAEKVGFPEARIPLANAVIELCLSPKSNSAIMAIDAALADIRQGKSGEVPDHLRDGHYSGAEKLGRAIDYKYPHNYDNAWVDQQYLPDRLKNKLYYAPKFTSKFEQTIAGVYQKINENKAKKEGHHHHHH
SSASDGFKANLVFKEIEKKLEEEGEQFVKKIGGIFAFKVKDGPGGKEATWVVDVKNGKGSVLPNSDKKADCTITMADSDFLALMTGKMNPQSAFFQGKLKITGNMGLAMKLQNLQLQPGNAKL
KRKDITLLNPIVRKFQYGQHTVTLETGMMARQATAAVMVSMDDTAVFVTVVGQKKAKPGQDFFPLTVNYQERTYAAGRIPGSFFRREGRPSEGETLIARLIDRPIRPLFPEGFVNEVQVIATVVSVNPQVNPDIVAMIGASAALSLSGIPFNGPIGAARVGYINDQYVLNPTQDELKESKLDLVVAGTEAAVLMVESEAQLLSEDQMLGAVVFGHEQQQVVIQNINELVKEAGKPRWDWQPEPVNEALNARVAALAEARLSDAYRITDKQERYAQVDVIKSETIATLLAEDETLDENELGEILHAIEKNVVRSRVLAGEPRIDGREKDMIRGLDVRTGVLPRTHGSALFTRGETQALVTATLGTARDAQVLDELMGERTDTFLFHYNFPPYSVGETGMVGSPKRREIGHGRLAKRGVLAVMPDMDKFPYTVRVVSEITESNGSSSMASVCGASLALMDAGVPIKAAVAGIAMGLVKEGDNYVVLSDILGDEDHLGDMDFKVAGSRDGISALQMDIKIEGITKEIMQVALNQAKGARLHILGVMEQAINAPRGDISEFAPRIHTIKINPDKIKDVIGKGGSVIRALTEETGTTIEIEDDGTVKIAATDGEKAKHAIRRIEEITAEIEVGRVYTGKVTRIVDFGAFVAIGGGKEGLVHISQIADKRVEKVTDYLQMGQEVPVKVLEVDRQGRIRLSIKEATEQSQPAAAPEAPAAEQGEHHHHHH
MSLSHRPVINASVSPKGTLETLSQREVQQLSETANGKTYQLFRQCAPAILNTGAHSDNAKTILDAYKDFEVRIHQQDRGVRLELINAPADAFVDGEMIASTREMLFSALRDIVYTQSGLDSQHVDLDSSQGLTDYVFQLLRNARTLRPGVEPKIVVCWGGHSISSEEYKYTKRVGHELGLRSLDVCTGCGPGVMKGPMKGATISHAKQRIVGGRYLGLTEPGIIAAEAPNPIVNELVILPDIEKRLEAFVRVGHGVIIFPGGAGTAEEFLYLLGILMHPDNQDLPFPVILTGPRSAEAYLQQLHEFVGATLGHAAQRHYRIVIDDPAEVAKQMAQGLKEVKQFRRERNDAFHFNWMLKIDESFQRPFEPTHENMASLQLSRSLPPHELAANLRRAFSGIVAGNVKDNGIRMIEQYGPYEIHGDPAVMLPLDRLLQAFVKQHRMKLPGGAAYVPCYRVVQTEAAEGHHHHHH
MAHHHHHHMAEDTITFLRTVGKLKETDRTGWVEHGIPNPESVSDHMYRVAVMCMMCPDEKLDRNKLIRMALCHDAGESIVGDISPKMGVSKEDKYNQEKAAVLHLTGLLEKESPLSRELHELWEEYEAQHTPEAQFLKDIDLLEMVAQAHAYELAHPKKDLSSFFVSGEKIKHPWARNIYETLLRTRSSEK
MKLTLKNLSMAIMMSTIVMGSSAMAADSNEKIVIAHRGASGYLPEHTLPAKAMAYAQGADYLEQDLVMTKDDNLVVLHDHYLDRVTDVADRFPDRARKDGRYYAIDFTLDEIKSLKFTEGFDIENGKKVQTYPGRFPMGKSDFRVHTFEEEIEFVQGLNHSTGKNIGIYPEIKAPWFHHQEGKDIAAKTLEVLKKYGYTGKDDKVYLQCFDADELKRIKNELEPKMGMELNLVQLIAYTDWNETQQKQPDGSWVNYNYDWMFKPGAMKQVAEYADGIGPDYHMLIEETSQPGNIKLTGMVQDAQQNKLVVHPYTVRSDKLPEYTPDVNQLYDALYNKAGVNGLFTDFPDKAVKFLNKE
TSTMGNLQTAINDKSGTLASQNFLDADEQKRNAYNQAVSAAETILNKQTGPNTAKTAVEQALNNVNNAKHALNGTQNLNNAKQAAITAINGASDLNQKQKDALKAQANGAQRVSNAQDVQHNATELNTA

Soluble on expression in E. coli, not soluble:
MGSDKIHHHHHHMPIYVYWGEDDFAMEKAIAVLRDHVLDPNWISFNYTAFTPDQADAAIQALNQVMTPTFGAGGRLVWLINTTLYQHCPENVLAELVRSLSVIPENSFLLLSSRNKPDERLKSTKLLKQFATEFREFPLIPPWKTELLVQSVNQVAQTVGVKLTANTAQLLAESVGNDTRLLYNEIEKLRLYAYGSNKPLDVDTVTKLVRNTTQNSLQLAAAIRIGDTAKALTTLADMINASEPGLRIVATLIGQFRTWLWVKIMIESGERNQQAIAIAADIGNPKRIYFLQQEIKLLSVQQLISCLPLLLELEVSLKQGASEMSTFQTKVIELCQVCQGS
MLETRMQTTPLKIGISACLLGAKVRFDGGHKISHFVTNELDRYAEFVSVCPEMGMGLPVPRPTLRLISENERIALVETKDSSRDHTAALESYSQQKVAELQHAELCGYIVCAKSPSCGMERVKVYKHNGTEKDGVGVYTRILMEKMPWLPIEEDGRLNDPVLRENYITRVFCLHDFYTSMGDAPSAKKIVEFHSRYKLTLMAHNPQAYRALGRLVANVKQYPLDSFIQEYRLGLMQALAHRASRKNNTNVLMHLQGYFKRSLNKLQKAELAQVIESYRVGELPLLAPITLLKHYLALFPDAYLAQQRYLNPYPQELKLRYGL
MGSDKIHHHHHHLTQLAQCSTSSISQSSIYLPYRDGQLHLRQLLPSAPDFSKTPILMLHGAMSNGRVFYSQSGRGLGCFLAKAGFVVYVLDTAGRGLSLPKIDRDSTLGQGEVIREQLPLVQQTILDLHQKACQEQTAQYDRKAVAPSQVHWCAHSWGGVLMASSLARYPELQQSVRSLLTFGSKRTIRVKSFKKWLMVDVFWNRLAPGLAMGQGYLAADKLRIGMDNESRASLVQSIDWVQGDWIDHDDGFDYAKAAKRADWPPAWFISGLNDTVLGHPEDVADMVEECGFKRVKSTLLSKENGFKHDYGHADMLTHLDATSDHFPKISDWYLSFDLAVLNG
MNIQKMYTAVDVHVNGEAFRVMKDVPCKYYYSLEQLNEQFSGELAEEMKLLLNEPRGFIGLNGCIVVPSIHNEVDAAVLFFNHEGSIPLHYGGIVAVITMLLESGYLKKRESNQYKIETLSGIFLVHAYVENDEVISVSFESKLCYLIEENLQVGNVSYSLIQADKVYAVVEKGAYSPEIRVENISELKRWGEATLQAIQKQSLIKRLILVDPSQKEKNHIKSITFHEDNFIVRSPGFVSTIVSYVHALFKNDYMADKPFKNESIFNSFITVEKVKKEELGYIFRFESRGFITGMQTFLLDPTDPFPAGFLLKLEHHHHHH
MPRHETDCRYFANGYCSKGNTCTFTHDVATRNENICHFNLVGKCSYGRACRFLHTRPRNDELPSCSTPQTSQNQQNLQNSGQRVRPKQLPELKFNAQAAEFVPRWKMPQRGPVTSYAGAAASADHGESSSSFQSSHEQAQLMMCPYHQKSGDCNRQDMDCPFAHGNYCDMCQQWSLHPYNAELRKKHENECVANHTTEMERAFLLQKTEQKTCGICMENIFEKNLRFGILNGCQHCFCLDCIRQWRSKDQENVELATKTVRSCPECRQHSDYVIPSLFWVESGQEKDLLIEMYKENTKRKICKYYSNERSRGACPFGNKCFYKHQLPDGSIDPGEAPSSRRRPRLVDFLFDDNSDSDEETFRRFQEEHEEEQEELLRFVAETLPEADEESELFRQITEVLRHYQISGHRRGFQ
MSLTMREVAKAAGVSIKTVSNVVNDYEFVSQATRDKVNKAIAELGYTVNVSARNLRRGQTGIIGLAIPDLQMPYFAQLSSLVIEEAKKVGLRVIVEPTQYSRDGELEALHGSQQMMIDGLIYSPLELGQDDVEQLKVDYPLVLVGERIFTDQVDHIATENVEGAKRATQYLLTTGCRRVAVVGVHPGEKVGSAALRYQGYLEALEEAGVEFDDRLVVESGMWHRSDGVRAMNALLDSGVEVDGVVALNDMLASGVMHAIQMHGLHIPDDISVVGFDNSDDSQYLSPALTSIAPGLEAVARLSVKVLKERIDGRDPNADRPGEKVFRKVASSLVVRQSTKLPIDSLVLEGHHHHHH
SKGLSFSSVYSVGNAAQTGVEDVLEHLDETFDAATSSHTLLLYIETISKPKRFLKHARSLVQKGCRIAAIKSGTSSDGGRAAASHTGAMLNSDVAVDALFRKAGVVRCYSREELATVGAVLQHPVLTGKNMAVITHAGGPAVMLTDALSNGGMSVPPIPEEKTRTLLSELFDGSSVANPIDILATGTAEQLSKVIDTCEKDLDTIDGMVVIFGSPGLFDVSDAYDVIREQQKKCKKPIYAVLPSVINAKEGMERFIAQGGILFEEEVALARAICKVYQTPKPEMTEESELPKAAEIRRLLAGKSGMLGTGDML
MTNLTNYHSHCLYCDGRANMEDFIRFAISEGFSSYGISSHAPLPFSTAWTMEWDRMDDYLSEFARLKEKYADKIELAIGLEIDYLNEESHPAIPRFQELPLDYRIGSVHMLYSPQGKVVDIDTPADIFRQLIDAHFEGDLDYVVHLYYKNLLRMVELGGFDILGHADKMHYNASCYRPGLLDEPWYDALVRDYFAEIARHGYIVEINTKSYHDLGTFYPNERYFPLLKELGIRVQVNSDAHYPERINNSRAEALAALKKVGFDTVVEWHGGQWKDMPLLQ
MGSDKIHHHHHHMKLIESVPNFSEGRRKEVVEKIVAEAKKYDRVWVLDWSMDADHNRSVITLVGEPENLINALFDMTKKAAELIDLRNHTGQHPRMGAADVIPLVPLYNTTMEECVEYSKILGRRIGEELGIPVYLYEKSATRPERQNLADIRKGEFEGFFEKIKDPLWKPDFGPDRVHPTAGVTAVGAREFLIAFNVNLGTRDVKIAEKIARAIRFSSGGLRYVKAIGVDLKGRGVVQVSINITNHKKTPLYRVFELIKMEAERYGVPVLGSEIVGLFPLESLLKTVSYYLRTDLNAKKVIESNLLEILVRESEK
MSEWASEDINAPSLLTGNPALQPQTGGILNIPANHQRIFTLFFTCRSQTNGDVVDQYAVEDRQQRLESRLLALKPSAQRNKQMCGECLGGVILTALFDPRSQAM
MLYIPQFSIYFCLGYLLLFCKISNAVKQSWEINQELITEANKEHTVFGDMLLTPAQLIRYENSKDSDLSIRGVSIKGSSMNRWSNNIVPYVISPQYSPAQKQILVSSLRYFERVSCFKFVERTTQNDYLFIVPLDGCYSYVGKIGGRQTLSLAADCIADYIIWHEMMHAIGFEHEHQRPDRDSFIRVDYANVIPGQMINFDKLKTSHVEYPDIYDFKSIMHYDGYAFGRVDTARRVRLATMTPLKPGVTLEDNMKFTATDIEKLNRLGQCGARGGQYSNQGVVASTCQDVATAVSCEGNRRRGMCKNPFYKQMMIKSCQKTCRLCSYTRMIDEDDDLTPNTTVKSVKCEDKHPRCDIYSHNGFCTLPFYDDVRYQLCAKTCNLC
